Measured values: patent US20250152742A1, “COMPOSITIONS AND METHODS FOR NEUROLOGICAL DISEASES” (Trames Bio, Inc., priority 2022, published 2025)
Where a chain is given by its changes, count along the chain named. In names and notes the source's numbering stands. Read-outs that look alike come from different tables or passages of the source.

Assays:
[1] = system: engineered receptors and wild type nAchRa7 expressed in HEK293T cells; experiment: High throughput electrophysiology (IonFlux HT/Mercury automated patch clamp), EC50; assay type: cell-based, human; conditions: for EC50: ligand TC-5619
Protocol: To confirm the […] determined by plate reader as well as develop a better understanding of maximum current flow, the engineered receptors were subjected to high throughput electrophysiology system, as described below. For HEK293T studies, cDNAs encoding ion channels were cloned into pcDNA3.1 using standard recombination techniques. HEK293T cells from Clontech (Lenti-XTM 293T Cell Line) were cultured in DMEM supplemented with 10% FBS and 1% Pen/Strep to 40-50% confluence using standard cell culture protocols, transfected with ion channel plasmids at a concentration of 18 μg per 15 cm dish using Fugene 6, and grown for an additional 24 hours. Cells were then assayed on an electrophysiological system (IonFluxHT and/or Mercury, Fluxion Biosciences) in which dose-response relationships may be assessed through a microfluidics-based platform for establishing whole cell configurations. Ensemble plates were primed with extracellular buffer (140 mM NaCl, 5 mM KCl, 2 mM CaCl2), 1 mM MgCl2, 10 mM HEPES, and 10 mM glucose, pH 7.2 with NaOH, mOsm 310), intracellular buffer (145 mM CsCl, 2 mM CaCl2, 2 mM MgCl2, 10 mM HEPES, and 10 mM EGTA, pH 7.2 with CsOH, mOsm 305), as adapted from Lynagh and Lynch, and test compounds (stocks prepared fresh) diluted in extracellular buffer. Cells were then released from the plate with Accutase, centrifuged, resuspended in extracellular buffer, and loaded into Ensemble plates. Cells were then subjected to a standard protocol for priming, trapping, breaking, and establishing whole cell configuration, with cells held at −60 mV throughout the recording. After recording baseline, progressive doses of test compounds were applied using the IonFlux software to assess dose response relationships. Data were then analyzed off-line using custom Python scripts to convert data to .csv format, re-plot traces, and apply QC measurements to reject unstable recordings (i.e. thresholding based on access resistance and/or standard deviation in baseline, as well as artifact rejection). Peak currents were then calculated, and population data were fit using a 4-parameter logistic equation as described by the Hill Equation. Currents were measured on an automated patch clamp system (Fluxion Biosciences) following 1 second addition of drug and the EC50 values calculated are tabulated below in Table 22A and Table 22B below and Table 21A and Table 21B above (in Example 2).

rat DRG neurons = experiment: Rheobase shift / evoked action potentials, rat DRG neurons (current clamp); assay type: cell-based; conditions: for Rheobase Shift; Rat DRG Neurons, Baseline: no ligand, neurons expressing the receptor; for Rheobase Shift; Rat DRG Neurons, +TC-5619 @ EC90: ligand TC-5619 at EC90
Protocol: Using whole cell manual patch clamp electrophysiology in HEK293 cells, rat DRG neurons and rat hippocampal neurons, the EC50 of the various engineered receptors disclosed herein to Ach and non-native ligands was measured using the Hill equation with peak current measurements from escalating doses of ligand. The rheobase shift was also measured in rat DRG neurons, which reflects the efficacy of the receptors. To calculate the rheobase, first, the amount of current that can produce an action potential was determined. Then the ligand was added, followed by a step wise increase in the current injected up to 700 pA.
DRG rheobase experiments were performed in current clamp mode using a potassium-based internal solution containing: 100 mM potassium D-gluconate, 28 mM potassium chloride, 1 mM magnesium chloride hexahydrate, 5 mM magnesium ATP, 10 mM HEPES, and 0.5 mM EGTA (pH=7.2 with potassium hydroxide, osmolarity=290-295 mOsm, calculated liquid junction potential=−13.5 mV). To measure DRG input resistance and rheobase, 500 ms current steps (−200 pA to 700 pA) were applied the membrane in the presence and absence of a compound. No holding current was applied to the membrane for cells included in the final datasets. Data were acquired at 10 kHz, with Bessel filter at 2 kHz and series resistance compensation at 100%. Rheobase was defined as the smallest depolarizing current injection required to cause an action potential to fire in the cell. In a subset of cells, the rheobase was ambiguous, since the action potential appeared to be graded in amplitude. In these cases, a […] of the trace clarified the rheobase. Input resistance was measured from the negative current injections, calculated as the difference in membrane potential at steady state divided by the current injection amplitude and then averaged across the four negative current steps for each recording. Resting membrane potential was measured from the first 100 ms of each sweep, averaged for each recording, and corrected for liquid junction potential. One-way ANOVA with multiple comparisons was used to test for significance of difference in rheobase and input resistance between baseline, drug, and wash conditions.
DRG neurons: DRG rheobase experiments were performed in current clamp mode using a potassium-based internal solution containing (in mM): 100 potassium D-gluconate (G4500), 28 potassium chloride (P9333), 1 magnesium chloride hexahydrate (M2670), 5 magnesium ATP (A9187), 10 HEPES (54457), and 0.5 EGTA (3777) (pH=7.2 with potassium hydroxide, osmolarity=290-295 mOsm, calculated liquid junction potential=−13.5 mV). To measure DRG input resistance and rheobase, 500 ms current steps (−200 pA to 700 pA) were applied the membrane (−400 pA to 700 pA in an early version of the protocol) in the presence and absence of a compound. No holding current was applied to the membrane for cells included in the final datasets. Data were acquired at 10 kHz, with Bessel filter at 2 kHz and series resistance compensation at 100%. Rheobase was defined as the smallest depolarizing current injection required to cause an action potential to fire in the cell. In a subset of cells, the rheobase was ambiguous, since the action potential appeared to be graded in amplitude. In these cases, a […] of the trace clarified the rheobase. Input resistance was measured from the negative current injections, calculated as the difference in membrane potential at steady state divided by the current injection amplitude and then averaged across the four negative current steps for each recording. Resting membrane potential was measured from the first 100 ms of each sweep, averaged for each recording, and corrected for liquid junction potential. One-way ANOVA with multiple comparisons was used to test for significance of difference in rheobase and input resistance between baseline, drug, and wash conditions.

[2] = HEK293 Cell Line, Table 22A, read-out: High-throughput Ephys EC50 (uM) TC-5619
[3] = high throughput electrophysiology, read-out: TC-5619 EC50 (ephys)

B1: CODA806: engineered receptor: Y115D, L131Q in SEQ ID NO: 33 (Chemogenic receptor-11) (protein)
chain: MRCSPGGVWLALAASLLHVSLQGEFQRKLYKELVKNYNPLERPVANDSQPLTVYFSLSLLQIMDVDEKNQVLTTNIWLQMSWTDHYLQWNVSEYPGVKTVRFPDGQIWKPDILLDNSADERFDATFHTNVQVNSSGHCQYLPPGIFKSSCPMDLKNFPMDVQTCKLKFGSWSYGGWSLDLQMQEADISGYIPNGEWDLVGIPGKRSERFYECCKEPYPDVTFTVTMRRRMGYYLIQMYIPSLLIVILSWISFWINMDAAPARVGLGITTVLTMTTQSSGSRASLPKVSYVKAIDIWMAVCLLFVFSALLEYAAVNFVSRQHKELLRFRRKRRHHKSPMLNLFQEDEAGEGRFNFSAYGMGPACLQAKDGISVKGANNSNTTNPPPAPSKSPEEMRKLFIQRAKKIDKISRIGFPMAFLIFNMFYWIIYKIVRREDVHNQ
modifications: synthetic sequence of chimeric LGIC
- fold increased potency towards RG-3487 compared to wild type receptor ([1]; ligand RG-3487): over 10 fold
- fold reduced potency to acetylcholine compared to wild type receptor ([1]; ligand acetylcholine): over 500 fold
- effect on evoked action potentials (rat DRG neurons; Acetylcholine at 3.0 mM, transduced neurons, n=4, FIG. 4B): no effect
- current injection evoked action potentials (rat DRG neurons; RG-3487 (SA-2) at 3 μM, transduced rat DRG neurons, FIG. 4A): reversibly inhibits current injection evoked action potentials
- increase in the current required to elicit action potentials (rat DRG neurons; RG-3487 (SA-2) at 3 μM, transduced rat DRG neurons, n=7): ~3 x
- Rheobase Shift; Rat DRG Neurons, Baseline (rat DRG neurons): 163 ± 28 pA
- Rheobase Shift; Rat DRG Neurons, Facinicline/RG-3487 @ EC90 (rat DRG neurons; ligand Facinicline/RG-3487 at EC90): 625 ± 35 pA

B2: CODA1045: engineered receptor: R101W, Y210V in SEQ ID NO: 33 (protein)
chain: B1 chain with R101W, D115Y, Q131L, Y210V
modifications: synthetic sequence of chimeric LGIC
- Rheobase Shift; Rat DRG Neurons, Baseline (rat DRG neurons): 141 ± 22 pA
- Rheobase Shift; Rat DRG Neurons, +TC-5619 @ EC90 (rat DRG neurons): 700 ± 0 pA

B3: CODA1027: engineered receptor: R101F, L131D in SEQ ID NO: 33 (protein)
chain: B1 chain with R101F, D115Y, Q131D
modifications: synthetic sequence of chimeric LGIC
- Rheobase Shift; Rat DRG Neurons, Baseline (rat DRG neurons): 100 ± 23 pA
- Rheobase Shift; Rat DRG Neurons, +TC-5619 @ EC90 (rat DRG neurons): 638 ± 63 pA

B4: CODA1054: engineered receptor: R101M, L131F in SEQ ID NO: 33 (protein)
chain: B1 chain with R101M, D115Y, Q131F
modifications: synthetic sequence of chimeric LGIC
- Rheobase Shift; Rat DRG Neurons, Baseline (rat DRG neurons): 105 ± 13 pA
- Rheobase Shift; Rat DRG Neurons, +TC-5619 @ EC90 (rat DRG neurons): 673 ± 27 pA

B5: CODA1048: engineered receptor: R101F, Y210F in SEQ ID NO: 33 (protein)
chain: B1 chain with R101F, D115Y, Q131L, Y210F
modifications: synthetic sequence of chimeric LGIC
- Rheobase Shift; Rat DRG Neurons, Baseline (rat DRG neurons): 120 ± 19 pA
- Rheobase Shift; Rat DRG Neurons, +TC-5619 @ EC90 (rat DRG neurons): 590 ± 46 pA

B6: COAD1056 (protein)
chain: B1 chain with R101F, D115E, Q131L, Y210W
modifications: synthetic sequence of chimeric LGIC
- EC50 [1, 2]: 0.042 µM
- EC50 [1, 3]: 0.0421 µM
- Rheobase Shift; Rat DRG Neurons, Baseline (rat DRG neurons): 114 ± 12 pA
- Rheobase Shift; Rat DRG Neurons, +TC-5619 @ EC90 (rat DRG neurons): 632 ± 43 pA

B7: CODA1025: engineered receptor: R101F, L131G in SEQ ID NO: 33 (protein)
chain: B1 chain with R101F, D115Y, Q131G
modifications: synthetic sequence of chimeric LGIC
- Rheobase Shift; Rat DRG Neurons, Baseline (rat DRG neurons): 140 ± 19 pA
- Rheobase Shift; Rat DRG Neurons, +TC-5619 @ EC90 (rat DRG neurons): 560 ± 72 pA

B8: COAD1055 (protein)
chain: B1 chain with R101W, D115E, Q131L, Y210W
modifications: synthetic sequence of chimeric LGIC
- EC50 [1, 2]: 0.0106 µM
- EC50 [1, 3]: 0.0106 µM
- Rheobase Shift; Rat DRG Neurons, Baseline (rat DRG neurons): 83 ± 7 pA
- Rheobase Shift; Rat DRG Neurons, +TC-5619 @ EC90 (rat DRG neurons): 562 ± 35 pA

B9: CODA1039: engineered receptor: Y115E, Y210W in SEQ ID NO: 33 (protein)
chain: B1 chain with D115E, Q131L, Y210W
modifications: synthetic sequence of chimeric LGIC
- Rheobase Shift; Rat DRG Neurons, Baseline (rat DRG neurons): 88 ± 9 pA
- Rheobase Shift; Rat DRG Neurons, +TC-5619 @ EC90 (rat DRG neurons): 453 ± 58 pA
